This data set concerns the molecule itself. In words: SEC; Biogel P-100 column; CLA incubated 5 h at room temperature at pH 7, 5 or 4 (10 mM Na-phosphate or Na-acetate, 150 mM NaCl); mass from a standard curve run at pH 7. A general note: In gel filtration, larger molecules generally elute earlier.

B1: Curcuma longa rhizome lectin (natural protein)
chain: KNILLSGETLETGKFLTEGEFTFLMQSDCNLVLYDLNRPIWSSGTIHKGSGCILKMQNDGNLVIYNVTNNAIWASNTGGQQGNYILILQRDRNVVIYSQPIFNTDTAVSKLNSSNLGETGNGGNIAQPENKIAIGASNGHNANILPSGETLPTGKLTLPSEVATETGK
modifications: glycosylated (glycoprotein with about 5.2% covalently bound sugar); sites not stated
As a reminder, the stoichiometry N is a count of units in the complex or per binding partner. Take B1: the “stoichiometry N” value turned out to be 2.

The values above are taken from article PMC4139268, “Thermal, Chemical and pH Induced Unfolding of Turmeric Root Lectin: Modes of Denaturation” (PLoS ONE, 2014).
